According to publication PMC8567202, “Phosphoinositide-binding activity of Smad2 is essential for its function in TGF-β signaling” (The Journal of Biological Chemistry, 2021):

Tests used:
Type in all cases: cell-based
[1] = system: HeLa cells; test: Nuclear translocation of EGFP-Smad2
Description: (§1) Two separate gels were used to accommodate all mutants. An empty vector transfection (vehicle) was used for a negative control for each gel. Glyceraldehyde 3-phosphate dehydrogenase (GAPDH) was used as a gel loading control. Data in A and B are quantified in Fig. S3A. C, TGF-β stimulated (10 ng/ml for 1 h) nuclear translocation of mouse EGFP-WT, -K420A, -W422A, -E425K, -Y426A, and -R427A/R428A transfected into HeLa cells whose endogenous Smad2 was suppressed by siRNA. For Smad2-WT, the effect of PI(4,5)P2 depletion was measured. Arrows indicate nuclear accumulation of EGFP-WT and EGFP-E425K. Scale bars indicate 10 μm. D, quantification of (C). (Inuc/Icyto) was calculated from total nuclear and cytosolic fluorescence intensity values. Blank and black bars indicate values before and after TGF-β stimulation. Error bars indicate S.D. values from >3 measurements (n = 10). E, Smad2 transcriptional activity measured by the luciferase assay. Blank and black bars indicate values before and after TGF-β stimulation. Error bars indicate S.D. values from >3 measurements (n = 10).
The ratio of nuclear to cytoplasmic protein was calculated from the fluorescence intensity of nucleus (Inuc) and the cytoplasm (Fcyto) in cross-section images of cells using the line profile function of Image-Pro Plus software (Media Cybernetics). Briefly, at least five different lines were drawn across the cross-sectional image of each cell and the average Inuc and ICyto values were calculated along the lines. Typically, more than ten cell images were analyzed for each data set to determine the average and SD values.

[2] = system: HeLa cells; test: Smad2 phosphorylation (pS465/pS467), Western blot
Description: as §1
HeLa cells were plated on 6-well or 48-well plates at the density of ∼1.5 × 10^5 or 1.25 × 10^4 for 24 h and 30 nM human Smad2 (or SARA) DsiRNAs (IDT: see sequences below) were transfected into cells using the jetPRIME system (Polyplus transfection) according to the manufacturer's protocols. After transfection with siRNA for 24 h, the medium was exchanged with a fresh one and cells were transfected again with 1 μg/ml of the mouse Smad2 expression vector. In total, 24 to 48 h after transfection, cells were used for further treatment or Western blot analysis. The sequences of DsiRNAs are as follows: SMAD2-siRNA1 (sense: 5′-[…]-3′; antisense: 5′-[…]-3′); SMAD2-siRNA2 (sense: 5′-[…]-3′; antisense: 5′-[…]-3′); SMAD2-siRNA3 (sense: 5′-[…]-3′; antisense: 5′-[…]-3′); SARA-siRNA1 (sense: 5′-[…]-3′; antisense: 5′-[…]-3′); SARA-siRNA2 (sense: 5′-[…]-3′; antisense: 5′-[…]-3′).
Transfected cells or treated cells were lysed in the cell lysis buffer (20 mM Tris-HCl, pH 7.5, containing 150 mM NaCl, 1 mM Na2EDTA, 1 mM EGTA, 1% Triton-X, protease inhibitors, and phosphatase inhibitors) (1 mM Na3VO4, 1 mM NaF, 1 μg/ml leupeptin, 1 mM phenylmethanesulfonylfluoride, 1.5 mM benzamidine, and 2 μg/ml pepstatin). The total protein concentration of the cell lysate was determined by the Pierce BCA protein assay kit (Thermo scientific). The same amounts of proteins were loaded onto a polyacrylamide gel to run sodium dodecyl sulfate–polyacrylamide gel electrophoresis. Proteins were separated and transferred to a polyvinylidene difluoride membrane. The membrane was blocked with 5% bovine serum albumin for 1 h and incubated overnight at 4 °C with various antibodies (1:1000 dilution for all antibodies). After the unbound antibodies were removed by washing with 0.1% Tris buffer saline with 0.1% Tween20, the membranes were incubated with the horseradish peroxidase secondary antibody (1:5000 dilution) for 1 h at room temperature. The membranes were washed three more times with 0.1% Tris buffer saline with 0.1% Tween20 to remove the unbound horseradish peroxidase secondary antibody before imaging. The chemiluminescence intensity of protein bands in the gel was analyzed and documented by the Azure 500Q Imaging System.

[3] = system: Smad2 transcriptional activity; test: Dual luciferase reporter assay for Smad2 transcriptional activity; details: for Smad2 transcriptional activity after TGF-β stimulation: Smad2-suppressed HeLa cells, luciferase, 10 ng/ml TGF-β for 48 h
Description: as §1
HeLa cells were plated on 6-well plates at the density of ∼1.5 × 10^5 and treated with siRNA as described above. The reporter gene containing three TGF-β/activin response element (ARE) coupled with the luciferase gene (pGL2 3ARE-Lux: Addgene) was used for enhanced activity ([55]). On translocation into the nucleus, receptor-activated Smad2 associates with the DNA-binding protein FAST1 to form a transcriptional complex on the ARE of the Mix.2 promoter. After 24 h, the cell media were replaced with fresh media and cells were cotransfected with 375 ng pGL2 3ARE-Lux experimental vector, 37.5 ng pGL4.73[hRluc/SV40] internal control vector (Promega), 337.5 ng FAST1, and 750 ng of pcDNA 3.1 plasmid harboring Smad2 WT or mutant using the jetPRIME transfection system (Polyplus transfection) according to the manufacturer's protocols. After 24 h of transfection, cells were placed in fresh media and stimulated with 10 ng/ml TGF-β for 48 h. Then the cells were washed with phosphate buffer saline, and the dual luciferase reporter assay was performed according to the manufacturer's protocols (Promega). All 3ARE-Luc activity values were normalized using the pGL4.73[hRluc/SV40] values as a reference.

[4] = HeLa cells, PI(4,5)P2 depletion

| Molecule | nuclear transport after TGF-β stimulation ([1]; HeLa cells with endogenous Smad2 suppressed, 10 ng/ml TGF-β for 1 h) | Smad2 phosphorylation after TGF-β stimulation ([2]; Smad2-depleted HeLa cells, 10 ng/ml TGF-β, 48 h) | Smad2 transcriptional activity after TGF-β stimulation [3] | nuclear transport after PI(4,5)P2 depletion ([1]; HeLa cells, PI(4,5)P2 depletion, TGF-β 10 ng/ml for 1 h) | Smad2 phosphorylation after PI(4,5)P2 depletion [2, 4] | TGF-β-induced Smad2 transcriptional activity after PI(4,5)P2 depletion [3, 4] |
| --- | --- | --- | --- | --- | --- | --- |
| Smad2-E425K: charge-reversal mutant of full-length Smad2; PI(4,5)P2 and TβRI binding-enhanced (protein, left off: His6, N-terminal, state not stated) MSSILPFTPPVVKRLLGWKKSAGGSGGAGGGEQNGQEEKWCEKAVKSLVKKLKKTGRLDELEKAITTQNCNTKCVTIPSTCSEIWGLSTANTVDQWDTTGLYSFSEQTRSLDGRLQVSHRKGLPHVIYCRLWRWPDLHSHHELKAIENCEYAFNLKKDEVCVNPYHYQRVETPVLPPVLVPRHTEILTELPPLDDYTHSIPENTNFPAGIEPQSNYIPETPPPGYISEDGETSDQQLNQSMDTGSPAELSPTTLSPVNHSLDLQPVTYSEPAFWCSIAYYELNQRVGETFHASQPSLTVDGFTDPSNSERFCLGLLSNVNRNATVEMTRRHIGRGVRLYYIGGEVFAECLSDSAIFVQSPNCNQRYGWHPATVCKIPPGCNLKIFNNQEFAALLAQSVNQGFEAVYQLTRMCTIRMSFVKGWGAKYRRQTVTSTPCWIELHLNGPLQWLDKVLTQMGSPSVRCSSMS | excessively transported to the nucleus | phosphorylated to a larger extent than WT | higher transcriptional activity than exogeneous Smad2 WT | – | – | – |
| Smad2 WT: bacterially expressed full-length Smad2 wild-type (protein, left off: His6, N-terminal, state not stated, bacterially expressed full-length Smad2 wild-type) MSSILPFTPPVVKRLLGWKKSAGGSGGAGGGEQNGQEEKWCEKAVKSLVKKLKKTGRLDELEKAITTQNCNTKCVTIPSTCSEIWGLSTANTVDQWDTTGLYSFSEQTRSLDGRLQVSHRKGLPHVIYCRLWRWPDLHSHHELKAIENCEYAFNLKKDEVCVNPYHYQRVETPVLPPVLVPRHTEILTELPPLDDYTHSIPENTNFPAGIEPQSNYIPETPPPGYISEDGETSDQQLNQSMDTGSPAELSPTTLSPVNHSLDLQPVTYSEPAFWCSIAYYELNQRVGETFHASQPSLTVDGFTDPSNSERFCLGLLSNVNRNATVEMTRRHIGRGVRLYYIGGEVFAECLSDSAIFVQSPNCNQRYGWHPATVCKIPPGCNLKIFNNQEFAALLAQSVNQGFEAVYQLTRMCTIRMSFVKGWGAEYRRQTVTSTPCWIELHLNGPLQWLDKVLTQMGSPSVRCSSMS | – | – | fully restored Smad2 transcriptional activity | abrogated the nuclear transport of Smad2 WT | greatly suppressed Smad2 phosphorylation | abrogated TGF-β-induced Smad2 transcriptional activity |
